Measurements: article PMC6702328 (2019)

Tests used:
Assay in all cases: MST
[1] = target: human mutant SOD1^G85R (human, fluorescently labeled (NanoTemper BLUE protein-labeling kit) where it was the labelled partner in MST)
Target sequence (chain, as listed by the source G85R): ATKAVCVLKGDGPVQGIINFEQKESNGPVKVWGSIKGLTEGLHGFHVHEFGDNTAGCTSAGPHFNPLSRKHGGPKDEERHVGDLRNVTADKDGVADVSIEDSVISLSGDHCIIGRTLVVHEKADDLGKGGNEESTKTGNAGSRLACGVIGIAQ

[2] = target: wild type human SOD1 (Cu/Zn superoxide dismutase) (human, UniProt P00441 1-154, fluorescently labeled (NanoTemper BLUE protein-labeling kit) where it was the labelled partner in MST)
[3] = target: human mutant SOD1^G93A (human, fluorescently labeled (NanoTemper BLUE protein-labeling kit) where it was the labelled partner in MST)
Target sequence (chain, as listed by the source G93A): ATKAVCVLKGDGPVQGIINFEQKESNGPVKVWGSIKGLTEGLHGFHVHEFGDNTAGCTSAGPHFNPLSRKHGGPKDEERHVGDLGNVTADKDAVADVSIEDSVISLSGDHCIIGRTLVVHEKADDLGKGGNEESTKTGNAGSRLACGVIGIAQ

wild type human SOD1 (Cu/Zn superoxide dismutase), sequence (P00441 whole entry): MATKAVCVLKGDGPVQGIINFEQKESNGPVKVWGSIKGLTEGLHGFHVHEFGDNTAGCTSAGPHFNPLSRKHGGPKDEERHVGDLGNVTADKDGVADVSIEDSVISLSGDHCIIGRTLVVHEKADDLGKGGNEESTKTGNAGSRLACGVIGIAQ

- EC50 [1]: 3.75 µM
- EC50 [2]: > 200 µM
- EC50 [3]: 3.75 µM
B1: 1-26 N-Terminal peptide of VDAC1 (peptide)
peptide: MAVPPTYADLGKSARDVFTKGYGFGL
